Source: patent US20060276387A1 (published 2006)

Target: human IPF1, N-terminus FLAG-tagged (from pcDNA-FLAG-IPF1) (human, UniProt P52945 1-283, limits assumed)
Test: cell-based or functional assay

human IPF1, N-terminus FLAG-tagged (from pcDNA-FLAG-IPF1), sequence (P52945 whole entry): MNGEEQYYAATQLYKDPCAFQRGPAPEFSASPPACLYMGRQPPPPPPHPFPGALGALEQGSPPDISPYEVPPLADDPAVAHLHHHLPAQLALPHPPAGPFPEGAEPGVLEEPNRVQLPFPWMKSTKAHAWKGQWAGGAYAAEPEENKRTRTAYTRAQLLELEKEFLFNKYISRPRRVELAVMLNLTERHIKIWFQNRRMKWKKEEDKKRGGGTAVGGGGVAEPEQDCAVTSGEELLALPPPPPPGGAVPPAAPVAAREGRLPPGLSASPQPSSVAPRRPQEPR

IPF1-dependent human insulin promoter activity (luciferase reporter, HeLa cells), inhibition [%]	Binder
~45	human hepatocyte nuclear factor 3-gamma (HNF3G), N-terminus HA-tagged (other, not shown: small tags and cut ends, 35S-methionine-labeled (in the pull-down)) MLGSVKMEAHDLAEWSYYPEAGEVYSPVTPVPTMAPLNSYMTLNPLSSPYPPGGLPASPLPSGPLAPPAPAAPLGPTFPGLGVSGGSSSSGYGAPGPGLVHGKEMPKGYRRPLAHAKPPYSYISLITMAIQQAPGKMLTLSEIYQWIMDLFPYYRENQQRWQNSIRHSLSFNDCFVKVARSPDKPGKGSYWALHPSSGNMFENGCYLRRQKRFKLEEKVKKGGSGAATTTRNGTGSAASTTTPAATVTSPPQPPPPAPEPEAQGGEDVGALDCGSPASSTPYFTGLELPGELKLDAPYNFNHPFSINNLMSEQTPAPPKLDVGFGGYGAEGGEPGVYYQGLYSRSLLNAS
~25	human PHD finger protein 1 (PHF1), N-terminus HA-tagged (other, not shown: small tags and cut ends, 35S-methionine-labeled (in the pull-down)) MAQPPRLSRSGASSLWDPASPAPTSGPRPRLWEGQDVLARWTDGLLYLGTIKKVDSAREVCLVQFEDDSQFLVLWKDISPAALPGEELLCCVCRSETVVPGNRLVSCEKCRHAYHQDCHVPRAPAPGEGEGTSWVCRQCVFAIATKRGGALKKGPYARAMLGMKLSLPYGLKGLDWDAGHLSNRQQSYCYCGGPGEWNLKMLQCRSCLQWFHEACTQCLSKPLLYGDRFYEFECCVCRGGPEKVRRLQLRWVDVAHLVLYHLSVCCKKKYFDFDREILPFTSENWDSLLLGELSDTPKGERSSKLLSALNSHKDRFISGREIKKRKCLFGLHARMPPPVEPPTGDGALTSFPSGQGPGGGVSRPLGKRRRPEPEPLRRRQKGKVEELGPPSAVRNQPEPQEQRERAHLQRALQASVSPPSPSPNQSYQGSSGYNFRPTDARCLPSSPIRMFASFHPSASTAGTSGDSGPPDRSPLELHIGFPTDIPKSAPHSMTASSSSVSSPSPGLPRRSAPPSPLCRSLSPGTGGGVRGGVGYLSRGDPVRVLARRVRPDGSVQYLVEWGGGGIF
~60	human distal-less homeobox 4 (DLX4), N-terminus HA-tagged (other, not shown: small tags and cut ends, 35S-methionine-labeled (in the pull-down)) MTSLPCPLPGRDASKAVFPDLAPVPSVAAAYPLGLSPTTAASPNLSYSRPYGHLLSYPYTEPANPGDSYLSCQQPAALSQPLCGPAEHPQELEADSEKPRLSPEPSERRPQAPAKKLRKPRTIYSSLQLQHLNQRFQHTQYLALPERAQLAAQLGLTQTQVKIWFQNKRSKYKKLLKQNSGGQEGDFPGRTFSVSPCSPPLPSLWDLPKAGTLPTSGYGNSFGAWYQHHSSDVLASPQMM
